According to patent US20120034651:

Tests used:
[1] = biological target: D16G TCL1 (UniProt P56279)
[2] = system: T1, 10/24 peptide (amino acid residue 10-24 of human TCL1, NH2-AVTDHPDRLWAWEKF-COOH)
T1 sequence: AVTDHPDRLWAWEKF

[3] = system: T2, peptide having repetitive sequence of 11-23 from 10-24 (NH2-VTDHPDRLWAWEK-RRR-VTDHPDRLWAWEK-COOH)
T2 sequence: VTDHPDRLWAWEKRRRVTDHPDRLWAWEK

D16G TCL1, sequence (P56279 whole entry D16G): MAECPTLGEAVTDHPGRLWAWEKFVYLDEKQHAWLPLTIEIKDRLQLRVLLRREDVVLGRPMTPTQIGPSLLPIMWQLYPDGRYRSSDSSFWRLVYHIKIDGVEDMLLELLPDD

Substance	Akt kinase activity in an in vitro kinase assay (GSK-3a phosphorylation, Akt Ser-473 phosphorylation) [1]	In vitro Akt kinase assay, GSK phosphorylation by western blotting, peptide at 200 µM [2]	In vitro Akt kinase assay, GSK phosphorylation [3]
Akt (in vitro kinase assay of Example 1)	D16G TCL1 did not affect the Akt kinase activity even though in a dose escalation experiment	–	–
Recombinant Akt protein extracted from mammalian cells	–	the 10/24 peptide was effectively inhibited the phosphorylation potency for GSK peptide of Akt	The similar inhibition effect on Akt kinase activity was also identified
